Measured values taken from the DeepSol protein solubility set.

Experiment: soluble on expression in E. coli; label from the status in PepcDB or PDB records

Row | Sequence | soluble on expression in E. coli
1 | MGHHHHHHSHMHVDREFAVVTDMKNSSSVSNTLTNGCVINGHLDFPSTTPLSGMESRNGQCLTGTNGISSGLAPGQPFPSSQGSLCISGTEEPEKTLRANPELCGSLHLNGSPSSCIASRPSWVEDIGDNLYYGHYHGFGDTAESIPELNSVVEHSKSVKVQERYDSAVLGTMHLHHGS | not soluble
2 | MGHHHHHHSHMIMQEIFLCSISNVRSGDCKEDCAYCTQSSHHQGAIKRYKFKDEKVVLQEARALRQLGALGFCLVTSGRELDDEKCEYIAKLAKAINQEELGLHLIACCGRADLEQLEFLRDAGIHSYNHNLETSQNFFPKICSTHTWEERFITCENALRAGLGLCSGGIFGLNESWEDRIEMLRALASLSPHTTPINFFIKNPVLPIDAETLSADEALECVLLAKEFLPNARLMVAGGREVVFKDNDKKEAKLFEYGINAVVLGDYLTTKGKAPKKDIEKLLSYGLTMATSCH | soluble
3 | MGHHHHHHSHMKAFSPVRSVRKNSLSDHSLGISRSKTPVDDPMSLLYNMNDCYSKLKELVPSIPQNKKVSKMEILQHVIDYILDLQIALDSHPTIVSLHHQRPGQNQASRTPLTTLNTDISILSLQASEFPSELMSNDSKALCG | soluble
4 | MGHHHHHHSHMKNLFLTSSFKDVVPLFTEFESNLQGKTVTFIPTASTVEEVVFYVEAGKKALEKLGLFVVELDVATESLDHIAATLRKNDFIYVTGGNTFFLLQELKRTGADKLILEEIAAGKLYIGESAGAVITSPNIAYIQSMDSPKKAEQLTNYDALNLVDFCTLPHYNNIPFKKITQKIVADYTKSLKMHPISNHEAILVRDEEVITKLANGKTD | soluble
5 | MGHHHHHHSHMKNSEESSSSSEDTNNATDTNTSESQDISVNGPEKVGDVYEIDGGTAKVMAISNKETTVKTGPIQFTVKKVIAAVANEQLPFIDVQIESENTSDEVVRFRPSLAQLATSTGVQIDEPSLLESDRLLDEYVGKVNDSGSIIYVFDNEEDIKDLESIRLRISSPFNEDLKNLGDKLDLKINLEH | soluble
6 | MGHHHHHHSHMLKIIRAGMYTTVQDGGRHGFRQSGISHCGALDMPALRIANLLVGNDANAPALEITLGQLTVEFETDGWFALTGAGCEARLDDNAVWTGWRLPMKAGQRLTLKRPQHGMRSYLAVAGGIDVPPVMGSCSTDLKVGIGGLEGRLLKDGDRLPIGKSKRDSMEAQGVKQLLWGNRIRALPGPEYHEFDRASQDAFWRSPWQLSSQSNRMGYRLQGQILKRTTDRELLSHGLLPGVVQVPHNGQPIVLMNDAQTTGGYPRIACIIEADMYHLAQIPLGQPIHFVQCSLEEALKARQDQQRYFEQLAWRLHNEN | not soluble
7 | MGHHHHHHSHMNNRTRLALIICNTEFDHLPPRNGADFDITGMKELLEGLDYSVDVEENLTARDMESALRAFATRPEHKSSDSTFLVLMSHGILEGICGTVHDEKKPDVLLYDTIFQIFNNRNCLSLKDKPKVIIVQACRGANRGELWVRDSPASLEVASSQSSENLEEDAVYKTHVEKDFIAFCSSTPHNVSWRDSTMGSIFITQLITCFQKYSWCCHLEEVFRKVQQSFETPRAKAQMPTIERLSMTRYFYLFPGN | soluble
8 | MGHHHHHHSHMNSIVNGLYTFMSTTVVPAVTEQAANLVGGASALAEGATQALTQISQTALEWGSGSEDATASSEVFSWEQQGAAAASSDLQEDKKETTEDVHQEAIGASSPNTSIEWEVIHENPDETGPIRHNQFEMVQNNYEWMKNSK | not soluble
9 | MGHHHHHHSHMPFTPPVVKRLLGWKKSAGGSGGAGGGEQNGQEEKWCEKAVKSLVKKLKKTGRLDELEKAITTQNCNTKCVTIPSTCSEIWGLSTPNTIDQWDTTGLYSFSEQTRSLDGRLQVSHRKGLPHVIYCRLWRWPDLHSHHELKAIENCEYAFNLKKDEVCVNPYHYQRVETP | soluble
10 | MGHHHHHHSHMPPHPAIFFYCLLRQGLTMLPRLVLNFWAQAVHLPRPPRVLGLQAGGTAPGQKKLFLTSHFPPASPLPLCFSLQQNFKKHSPRSPPGILGSLYPGFCSPIATSPFAKGTRGLRVVGSSGRLSASS | not soluble
11 | MGHHHHHHSHMPSCVVNPMEHTHAATAALPAAGPVNLPTGISRVPTGYPSDLKPVTWNQHQLAHLQQMCSEASGTPAPGLTGKHAAGRELAGPGFVGKAPAYPQELCLAQSFHLKPPLEKPTPSPPVNGMAAPLAYPNGHYFQPLWNNILPTPNSDSSGSQDLAMPFHGGQPTGAPLDCAAAPGAHYRAGTGGGPVASQNSLMQTVDYLSGDFQQACFREQSLAMLSKAHRAPGNRAPDPTESRSLHIQHPGYR | not soluble
12 | MGHHHHHHSHMPSLSTLRMRRCPSSLWIRFGYDPRKNPDAKIYQVLDFRIRCGMKHGYAPSDLPVKAKRSTYNYSLPITVKKTSSQLVTMHDLKQGLGPSGTSGARKPASSKYKLKVSLQTLRDSVYIFREGALPPYRQMFYQLCDLNVEELQKIIHRNDGAENSCTERDGWCLPKTSDELRDTMSLMIRQTIRSKRPALFSSSAKADGGKEQLTYESGEDEEDEEEEEEEEEDFKPSDGSENEMETEILDYV | not soluble
13 | MGHHHHHHSHMPVTEKDLAEDAPWKKIQQNTFTRWCNEHLKCVNKRIGNLQTDLSDGLRLIALLEVLSQKRMYRKYHQRPTFRQMQLENVSVALEFLDRESIKLVSIDSKAIVDGNLKLILGLVWTLILHYSISMPVWEDEGDDDAKKQTPKQRLLGWIQNKIPYLPITNFNQNWQDGKALGALVDSCAPGLCPDWESWDPQKPVDNAREAMQQADDWLGVPQVITPEEIIHPDVDEHSVMTYLSQFPKAKLKPGAPLKPKL | soluble
14 | MGHHHHHHSHMQHLENSSLFEGSLSKNLSLNSQALKENLYYEAGKMLAISLVHGGPSPGFFSKTLFNCLVYGPENTQPILDDVSDFDVAQIIIRINTATTVADLKSIINECYNYLELIGCLRLITTLSDKYMLVKDILGYHVIQRVHTPFESFKQGLKTLGVLEKIQAYPEAFCSILCHKPESLSAKILSELFTVHTLPDVKALGFWNSYLQAVEDGKSTATMEDILIFATGCSSIPPAGFKPTPSIECLHVDFPVGNKCNNCLAIPITNTYKEFQENMDFTIRNTLRLEKEESSHYIGH | not soluble
15 | MGHHHHHHSHMQNEKETMQSLNDRLASYLDRVRSLETENRRLESKIREHLEKKGPQVRDWSHYFKIIEDLRAQIFANTVDNARIVLQIDNARLAADDFRVKYETELAMRQSVENDIHGLRKVIDDTNITRLQLETEIEALKEELLFMKKNHEEEVKGLQAQIASSGLTVEVDAPKSQDLAKIMADIRAQYDELARKNREELDKYWSQQIEESTTVVTTQSAEVGAAETTLTELRRTVQSLEIDLDSMRNLKASLENSLREVEARYALQMEQLNGILLHLESELAQTRAEGQRQAQEYEALLNIKVKLEAEIATYRRLLEDGEDFNLGDALDSSNSMQTIQKTTTRRIVDGKVVSETNDTKVLRH | soluble
16 | MGHHHHHHSHMRTISFFNNKGGVGKTTLSTNVAHYFALQGKRVLYVDCDPQCNATQLMLTEEQTESIYLDGLNDEVAERNSLAKTVYAIFVPLREGESQIAAEITPMRSERFGVDVLPGHPALSQIEDLMSDSWQSALGRQTGPFRRIHWAGQLAHAMERDDRYDVIFFDVGPSLGPFNRTVLLGCDAFVTPTATDLFSFHAFGNLARWFDAWVTQYAEIHEGNMAEWKKYS | not soluble
17 | MGHHHHHHSHMSASYISDPVIAGTNMTWSQEKQSLLMQGEILVETRSHTAWGGAVSACMYLPLRRSQVWQQITDYPRWVQYFPDITKSEVLQRGEVKRLYQAAQKAFFFFTAQVEIYLNVVEVIGHKIQFRMEKGTFVDFTANLELKDCGDGTLLIYGVQATPNIPVPSIFIQQAMNFELPTNMRKMRQVISNSVNS | not soluble
18 | MGHHHHHHSHMSFVECPYHSPAERLVAEADEGGPSAITGMGLCFRCLLFSFSGRSGVEGGRVDLNVFGSLGLQPWIGSSRCWGGPCSSALRCGWFSSWPPPSKSAIPIGGGSRGAGRVSRWPPPHWLEAWRVSPRPL | not soluble
